Target: Escherichia coli CTP synthase (ecCTPS), wild type (Escherichia coli) (UniProt P0A7E5)
Experiment: cryo-EM structure

Substance: Escherichia coli CTP synthase (ecCTPS), wild type (from UniProt P0A7E5 1-545) (enzyme)
- stoichiometry N: 4

Source: paper doi:10.1101/2023.10.19.563106
